In patent US20250011456A1, “ANTIBODIES AGAINST CD14 AND USES THEREOF” (Villanelle Life Science Inc, priority 2023, published 2025):
Substitutions are numbered along the chain they refer to.

T1: recombinant human CD14 (B294801, histidine tagged) (Homo sapiens, UniProt P08571)
T1 construct: His; purchased Shanghai BaiYing Biotechnology Co., Ltd B294801 (Batch number 20200518A22)
T1 sequence (P08571 20-345): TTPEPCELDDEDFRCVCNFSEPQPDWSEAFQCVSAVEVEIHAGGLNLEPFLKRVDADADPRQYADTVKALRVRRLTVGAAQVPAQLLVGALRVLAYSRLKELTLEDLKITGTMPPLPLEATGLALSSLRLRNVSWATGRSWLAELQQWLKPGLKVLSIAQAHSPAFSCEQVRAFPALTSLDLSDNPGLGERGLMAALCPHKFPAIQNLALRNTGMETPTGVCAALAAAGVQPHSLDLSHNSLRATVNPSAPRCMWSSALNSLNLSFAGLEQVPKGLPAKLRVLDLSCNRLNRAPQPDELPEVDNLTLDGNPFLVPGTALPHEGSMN

B1: D6DD3D005: humanized anti-CD14 antibody; VH SEQ ID NO: 17, VL SEQ ID NO: 19 (antibody, V domains shown)
VH: QVQLQESGPGLVKPSETLSLTCTVSGYSITSDSAWNWIRQPPGKGLEWIGYISYSGSTSYNPSLKSRVTISRDTSKNQFSLKLSSVTAADTAVYYCVRGLRFAYWGQGTLVTVSS
VL: EIVLTQSPATLSLSPGERATLSCRASESVDSYVNSFLHWYQQKPGQAPRLLIYRASNLQSGIPARFSGSGSRTDFTLTISSLEPEDVAVYYCQQSNEDPYTFGQGTKLEIK
B2: D6DD3D011: humanized anti-CD14 antibody; VH SEQ ID NO: 41, VL SEQ ID NO: 43 (antibody, V domains shown)
VH: B1 VH with E16Q
VL: DIVLTQSPDSLAVSLGERATINCRASESVDSYVNSFLHWYQQKPGQPPKLLIYRASNLQSGVPDRFSGSGSRTDFTLTISSLQAEDVAVYYCQQSNEDPYTFGQGTKLEIK
B3: D6DD3D016: humanized anti-CD14 antibody; VH SEQ ID NO: 61, VL SEQ ID NO: 63 (antibody, V domains shown)
VH: B1 VH with E16Q
VL: DIQLTQSPSSLSASVGDRVTITCRASESVDSYVNSFLHWYQQKPGKAPKLLIYRASNLQSGVPSRFSGSGSRTDFTLTISSLQPEDVATYYCQQSNEDPYTFGQGTKLEIK
B4: D6DD3D008: humanized anti-CD14 antibody; VH SEQ ID NO: 29, VL SEQ ID NO: 31 (antibody, V domains shown)
VH: B1 VH with Y27G, T30S
VL: B2 VL
B5: D6DD3D010: humanized anti-CD14 antibody; VH SEQ ID NO: 37, VL SEQ ID NO: 39 (antibody, V domains shown)
VH: B1 VH
VL: B2 VL
B6: D6DD3D007: humanized anti-CD14 antibody; VH SEQ ID NO: 25, VL SEQ ID NO: 27 (antibody, V domains shown)
VH: B1 VH with E16Q, Y27G, T30S, P41H
VL: B2 VL
B7: D6DD3D014: humanized anti-CD14 antibody; VH SEQ ID NO: 53, VL SEQ ID NO: 55 (antibody, V domains shown)
VH: B1 VH with V2L, Y27G, T30S
VL: B3 VL
B8: D6DD3D009: humanized anti-CD14 antibody; VH SEQ ID NO: 33, VL SEQ ID NO: 35 (antibody, V domains shown)
VH: B1 VH with V2L, Y27G, T30S
VL: B2 VL
B9: D6DD3D002: humanized anti-CD14 antibody; VH SEQ ID NO: 5, VL SEQ ID NO: 7 (antibody, V domains shown)
VH: B1 VH with E16Q, Y27G, T30S, P41H
VL: B1 VL
B10: D6DD3D012: humanized anti-CD14 antibody; VH SEQ ID NO: 45, VL SEQ ID NO: 47 (antibody, V domains shown)
VH: B1 VH with E16Q, Y27G, T30S, P41H
VL: B3 VL
B11: D6DD3D006: humanized anti-CD14 antibody; VH SEQ ID NO: 21, VL SEQ ID NO: 23 (antibody, V domains shown)
VH: B1 VH with E16Q
VL: B1 VL
B12: D6DD3D013: humanized anti-CD14 antibody; VH SEQ ID NO: 49, VL SEQ ID NO: 51 (antibody, V domains shown)
VH: B1 VH with Y27G, T30S
VL: B3 VL
B13: D6DD3D015: humanized anti-CD14 antibody; VH SEQ ID NO: 57, VL SEQ ID NO: 59 (antibody, V domains shown)
VH: B1 VH
VL: B3 VL
B14: D6DD3D004: humanized anti-CD14 antibody; VH SEQ ID NO: 13, VL SEQ ID NO: 15 (antibody, V domains shown)
VH: B1 VH with V2L, Y27G, T30S
VL: B1 VL
B15: D6DD3D003: humanized anti-CD14 antibody; VH SEQ ID NO: 9, VL SEQ ID NO: 11 (antibody, V domains shown)
VH: B1 VH with Y27G, T30S
VL: B1 VL

Target: T1, recombinant human CD14 (B294801, histidine tagged)
Assay: Biacore 8K kinetic and affinity test of humanized antibodies (Example 8)
Type: binding
Settings: for Kd / koff (1:1 binding) / kon (1:1 binding): Biacore 8K, analyte B294801 0.78125-25 nM, capture 1 μg/mL; for Kd: KD=koff/kon; for affinity compared with the mouse antibody D6DD3D001: Biacore, B294801 antigen; for Change Factor (ratio of KD of the humanized to mouse antibody): relative to mouse antibody D6DD3D001
Method: Experimental reagents and consumables included Protein A chip (Cytiva, 29127556). Main instruments and equipment included Biacore 8K (Cytiva), shaker (Taicang Huamei), ELISA system (Molecular Devices), centrifuge (Baiyang), ultrapure water system (Millipore), and thermostatic incubator (BLUE PARD).
The antigen used for the binding affinity measurements is B294801. This antigen is a recombinant human CD14 antigen that is histidine tagged and has a molecular weight of 36 kDa. B294801 was purchased from Shanghai BaiYing Biotechnology Co., Ltd (name: Recombinant Human CD14/His Protein; Batch number 20200518A22). D6DD3D001 is a mouse antibody, and D6DD3D002-D6DD3D0016 are humanized antibodies. The antibodies are recombinant, human (hFc Tag). Selected parameters of the experimental samples are shown in Table 8-1, with MW referring to molecular weight in kiloDaltons (kDa).
The Biacore 8K platform was used to test the kinetic and affinity properties of the antibody. The operation was carried out according to the system instructions and indications.
The equilibrium dissociation constant (KD) reflects the affinity of the antibody to the target, with a smaller value indicating a stronger affinity. KD (in units of molarity) is determined by the ratio of the dissociation rate constant (koff) and the association rate constant (kon), that is, KD=Koff/kon.
15 humanized antibodies (numbered D6DD3D002-D6DD3D0016) and 1 mouse antibody (number D6DD3D001) were tested. For the experiments, the analyte solution comprises the B294801 antigen with an analyte concentration of 0.78125 nM, 1.5625 nM, 3.125 nM, 6.25 nM, 12.5 nM, and 25 nM. The capture concentration was 1 μg/mL. In Table 8-3, the change factor is the ratio of the equilibrium dissociation constant KD of the humanized to mouse antibody, and reflects the change in affinity after humanization.

Molecule	Kd [nM]	koff (1:1 binding) [s⁻¹]	kon (1:1 binding) [M⁻¹ s⁻¹]	affinity compared with the mouse antibody D6DD3D001	Change Factor (ratio of KD of the humanized to mouse antibody)
B1	0.529	0.000798	1.51e+06	approximately equivalent to the affinity of the antibody D6DD3D001 before humanization	1.09
B2	0.639	0.00109	1.71e+06	–	1.32
B3	0.672	0.000904	1.35e+06	–	1.39
B4	1.57	0.00329	2.09e+06	–	3.24
B5	0.555	0.00105	1.9e+06	approximately equivalent to the affinity of the antibody D6DD3D001 before humanization	1.14
B6	–	0.00342	2.11e+06	–	–
B7	1.8	0.00318	1.77e+06	–	3.71
B8	1.89	0.00379	2.01e+06	–	3.90
B9	–	0.00292	1.69e+06	–	–
B10	–	0.00293	1.64e+06	–	–
B11	0.602	0.000862	1.43e+06	–	1.24
B12	1.61	0.00282	1.76e+06	–	3.32
B13	0.532	0.000843	1.59e+06	approximately equivalent to the affinity of the antibody D6DD3D001 before humanization	1.10
B14	1.99	0.00326	1.64e+06	–	4.10
B15	1.62	0.00295	1.82e+06	–	3.34
